Test results: publication PMC8897147 (Acta Pharmaceutica Sinica. B, 2021)

T1: GHRHR (Homo sapiens, UniProt Q02643)
T1 sequence (Q02643 23-423): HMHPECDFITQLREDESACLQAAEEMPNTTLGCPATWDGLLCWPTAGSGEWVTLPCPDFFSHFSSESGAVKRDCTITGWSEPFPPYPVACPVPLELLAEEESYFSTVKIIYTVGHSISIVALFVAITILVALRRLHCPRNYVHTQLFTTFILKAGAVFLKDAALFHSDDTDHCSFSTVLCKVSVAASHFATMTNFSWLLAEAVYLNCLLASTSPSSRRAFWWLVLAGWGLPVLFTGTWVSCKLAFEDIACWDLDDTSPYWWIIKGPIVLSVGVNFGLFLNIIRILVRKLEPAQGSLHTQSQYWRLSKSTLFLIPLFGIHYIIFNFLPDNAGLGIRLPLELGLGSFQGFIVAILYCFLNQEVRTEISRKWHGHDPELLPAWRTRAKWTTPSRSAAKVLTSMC

T2: GLP-2R (Homo sapiens, UniProt O95838)
T2 sequence (O95838 1-553): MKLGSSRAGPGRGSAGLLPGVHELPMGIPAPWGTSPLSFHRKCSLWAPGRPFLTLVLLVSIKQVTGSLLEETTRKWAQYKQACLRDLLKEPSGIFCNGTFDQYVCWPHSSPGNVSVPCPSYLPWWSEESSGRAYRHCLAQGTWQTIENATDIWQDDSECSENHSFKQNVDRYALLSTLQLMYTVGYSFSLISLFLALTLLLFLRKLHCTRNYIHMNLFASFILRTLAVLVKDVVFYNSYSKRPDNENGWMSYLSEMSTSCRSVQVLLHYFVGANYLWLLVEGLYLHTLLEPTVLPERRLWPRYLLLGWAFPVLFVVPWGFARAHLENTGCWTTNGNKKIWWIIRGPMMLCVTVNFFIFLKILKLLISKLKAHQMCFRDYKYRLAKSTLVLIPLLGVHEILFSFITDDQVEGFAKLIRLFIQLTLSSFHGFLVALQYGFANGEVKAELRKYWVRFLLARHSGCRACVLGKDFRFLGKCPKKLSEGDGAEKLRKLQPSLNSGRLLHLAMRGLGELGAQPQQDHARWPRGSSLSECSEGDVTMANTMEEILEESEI

T3: SV1 (Homo sapiens, UniProt Q02643)
T3 sequence (Q02643 90-423 limits assumed): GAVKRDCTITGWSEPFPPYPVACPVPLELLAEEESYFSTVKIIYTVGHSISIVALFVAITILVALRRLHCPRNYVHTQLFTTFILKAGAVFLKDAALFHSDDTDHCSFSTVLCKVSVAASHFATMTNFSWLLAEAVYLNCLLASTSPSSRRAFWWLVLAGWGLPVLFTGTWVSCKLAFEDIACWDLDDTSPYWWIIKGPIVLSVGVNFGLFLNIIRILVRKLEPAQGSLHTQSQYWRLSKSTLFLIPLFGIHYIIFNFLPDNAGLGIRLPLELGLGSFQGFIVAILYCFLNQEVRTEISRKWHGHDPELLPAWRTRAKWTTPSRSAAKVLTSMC

T4: GIPR (Homo sapiens, UniProt P48546)
T4 sequence (P48546 22-466): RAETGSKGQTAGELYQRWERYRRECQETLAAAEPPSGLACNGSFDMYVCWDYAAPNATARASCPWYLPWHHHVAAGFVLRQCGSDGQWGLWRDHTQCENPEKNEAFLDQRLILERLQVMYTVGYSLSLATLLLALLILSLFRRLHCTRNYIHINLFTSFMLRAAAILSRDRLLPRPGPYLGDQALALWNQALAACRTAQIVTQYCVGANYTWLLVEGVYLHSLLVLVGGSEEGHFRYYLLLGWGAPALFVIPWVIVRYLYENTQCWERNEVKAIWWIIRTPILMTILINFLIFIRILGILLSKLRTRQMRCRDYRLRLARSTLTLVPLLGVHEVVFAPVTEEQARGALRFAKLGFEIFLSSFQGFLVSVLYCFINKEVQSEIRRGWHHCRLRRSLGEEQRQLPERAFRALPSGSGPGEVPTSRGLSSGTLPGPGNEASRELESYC

B1: receptor activity-modulating protein 3 (protein)
chain: RAGGCNETGMLERLPLCGKAFADMMGKVDVWKWCNLSEFIVYYESFTNCTEMEANVVGCYWPNPLAQGFITGIHRQFFSNCTVDRVHLEDPPDEVLIPLIVIPVVLTVAMAGLVVWRSKRTDTLL
modifications: left off: Ypet, C-terminal, kept
B2: receptor activity-modulating protein 2 (protein)
chain: QPLPTTGTPGSEGGTVKNYETAVQFCWNHYKDQMDPIEKDWCDWAMISRPYSTLRDCLEHFAELFDLGFPNPLAERIIFETHQIHFANCSLVQPTFSDPPEDVLLAMIIAPICLIPFLITLVVWRSKDSEAQA
modifications: left off: Ypet, C-terminal, kept

Legend:
[1] = test system: SCTR; assay: BRET GPCR–RAMP interaction; format: binding; settings: COS-7; receptor-Rluc8:RAMP-Ypet 1:0.25 to 1:16; pH 7.4, 37 °C; mean ± SEM n≥3
[2] = target: T1, GHRHR; assay: BRET GPCR–RAMP interaction; format: binding; settings: COS-7; receptor-Rluc8:RAMP-Ypet 1:0.25 to 1:16; pH 7.4, 37 °C; mean ± SEM n≥3
[3] = target: T2, GLP-2R; assay: BRET GPCR–RAMP interaction; format: binding; settings: COS-7; receptor-Rluc8:RAMP-Ypet 1:0.25 to 1:16; pH 7.4, 37 °C; mean ± SEM n≥3
[4] = target: T3, SV1; assay: BRET GPCR–RAMP interaction; format: binding; settings: COS-7; receptor-Rluc8:RAMP-Ypet 1:0.25 to 1:16; pH 7.4, 37 °C; mean ± SEM n≥3
[5] = target: GLP-1R (Homo sapiens, UniProt P43220); assay: BRET GPCR–RAMP interaction; format: binding; settings: COS-7; receptor-Rluc8:RAMP-Ypet 1:0.25 to 1:16; pH 7.4, 37 °C; mean ± SEM n≥3
[6] = target: T1, GHRHR; assay: cAMP accumulation; settings: COS-7; RAMP3
[7] = target: CLR (Homo sapiens, UniProt Q16602); assay: BRET GPCR–RAMP interaction; format: binding; settings: COS-7; receptor-Rluc8:RAMP-Ypet 1:0.25 to 1:16; pH 7.4, 37 °C; mean ± SEM n≥3
[8] = test system: COS-7 cells; assay: RAMP cell surface expression; format: cell-based
[9] = target: T3, SV1; assay: cAMP accumulation; settings: COS-7; RAMP3
[10] = target: T5, GCGR (Homo sapiens, UniProt P47871); assay: BRET GPCR–RAMP interaction; format: binding; settings: COS-7; receptor-Rluc8:RAMP-Ypet 1:0.25 to 1:16; pH 7.4, 37 °C; mean ± SEM n≥3
[11] = target: T4, GIPR; assay: BRET GPCR–RAMP interaction; format: binding; settings: COS-7; receptor-Rluc8:RAMP-Ypet 1:0.25 to 1:16; pH 7.4, 37 °C; mean ± SEM n≥3
[12] = target: T5, GCGR; settings: CHO-K1 ref [38]; cited from earlier work
[13] = target: T2, GLP-2R; assay: Gαq activation; format: cell-based; settings: HEK293A; RAMP2
[14] = target: T5, GCGR; settings: CHO-K1 ref [38]; cited from earlier work; remark: listed apart in the source

T5 sequence (P47871 26-477, species assumed): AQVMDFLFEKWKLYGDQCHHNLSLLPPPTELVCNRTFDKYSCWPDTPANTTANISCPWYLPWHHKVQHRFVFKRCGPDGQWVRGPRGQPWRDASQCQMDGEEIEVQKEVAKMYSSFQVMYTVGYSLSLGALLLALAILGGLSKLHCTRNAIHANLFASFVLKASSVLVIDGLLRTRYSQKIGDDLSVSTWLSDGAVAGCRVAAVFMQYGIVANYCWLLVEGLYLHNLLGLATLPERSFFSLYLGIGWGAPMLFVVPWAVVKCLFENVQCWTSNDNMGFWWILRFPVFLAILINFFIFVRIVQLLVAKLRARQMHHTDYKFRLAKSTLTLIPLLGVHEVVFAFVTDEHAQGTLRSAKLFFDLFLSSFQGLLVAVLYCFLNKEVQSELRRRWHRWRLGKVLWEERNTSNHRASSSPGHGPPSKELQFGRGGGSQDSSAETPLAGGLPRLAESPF
Chain of CLR (Q16602 23-461): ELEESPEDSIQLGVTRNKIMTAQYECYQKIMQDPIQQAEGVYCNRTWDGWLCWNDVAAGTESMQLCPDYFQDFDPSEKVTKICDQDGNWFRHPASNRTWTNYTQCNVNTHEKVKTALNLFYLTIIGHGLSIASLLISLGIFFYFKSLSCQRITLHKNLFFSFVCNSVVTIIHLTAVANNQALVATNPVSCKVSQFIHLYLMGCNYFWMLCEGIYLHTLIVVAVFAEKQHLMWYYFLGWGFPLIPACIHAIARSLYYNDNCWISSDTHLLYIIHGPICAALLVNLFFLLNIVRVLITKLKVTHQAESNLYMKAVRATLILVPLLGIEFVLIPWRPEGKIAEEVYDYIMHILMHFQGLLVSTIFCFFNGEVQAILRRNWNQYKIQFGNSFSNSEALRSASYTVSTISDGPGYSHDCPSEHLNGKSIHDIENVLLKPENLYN
Chain of GLP-1R (P43220 24-463): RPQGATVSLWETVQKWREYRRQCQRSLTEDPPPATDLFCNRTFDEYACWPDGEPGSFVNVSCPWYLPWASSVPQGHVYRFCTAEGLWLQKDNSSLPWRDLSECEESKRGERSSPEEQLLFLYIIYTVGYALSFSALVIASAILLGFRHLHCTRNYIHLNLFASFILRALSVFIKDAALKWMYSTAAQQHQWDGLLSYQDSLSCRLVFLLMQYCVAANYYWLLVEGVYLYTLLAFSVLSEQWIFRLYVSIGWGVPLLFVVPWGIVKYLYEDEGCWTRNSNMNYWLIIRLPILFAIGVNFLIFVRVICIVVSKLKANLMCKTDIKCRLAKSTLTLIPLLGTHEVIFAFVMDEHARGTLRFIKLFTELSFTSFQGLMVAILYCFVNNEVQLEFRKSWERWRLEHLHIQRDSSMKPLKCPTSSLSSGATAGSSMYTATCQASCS

Molecule | Bmax (maximum measured BRET value) [1] | Bmax (maximum measured BRET value) [2] | Bmax (maximum measured BRET value) [3] | Bmax (maximum measured BRET value) [4] | Bmax (maximum measured BRET value) [5] | effect of RAMP on cAMP response [6] | Bmax (maximum measured BRET value) [7] | RAMP cell surface expression ([8]; co-expression with GCGR, FLAG-RAMP) | RAMP cell surface expression ([8]; co-expression with SCTR, FLAG-RAMP, effect of receptor on RAMP3) | RAMP cell surface expression ([8]; co-expression with SV1, FLAG-RAMP) | effect of RAMP on cAMP response [9] | Bmax (maximum measured BRET value) [10] | Bmax (maximum measured BRET value) [11] | Gαq signaling [12] | effect of RAMP on potency, Gαq activation [13] | β-arrestin recruitment [14] | RAMP cell surface expression ([8]; co-expression with glucagon receptor family members, FLAG-RAMP)
B1 | 0.995 ± 0.058 | 0.948 ± 0.139 | 0.689 ± 0.128 | 1.842 ± 0.754 | 0.862 ± 0.100 | no effect | 0.511 ± 0.058 | negative | negative | negative | marked response | 1.102 ± 0.165 | 0.729 ± 0.061 | – | – | – | –
B2 | 0.434 ± 0.051 | 0.393 ± 0.025 | 0.567 ± 0.234 | 0.843 ± 0.102 | 0.397 ± 0.092 | – | 0.468 ± 0.042 | – | – | – | – | 0.578 ± 0.072 | 0.474 ± 0.122 | attenuated Gαq signaling | nominal reduction | abolished β-arrestin recruitment | negligible
